Consider 2 substances from PMC9675734.

Experiment [1] addresses soluble domain of Arabidopsis thaliana cytochrome c1 (Arabidopsis thaliana) (UniProt Q9FKS5). Description: SPR; SPRi; Cc1 immobilised by direct amine coupling on a CS SPRi-Biochip (10 and 15 uM drops); WT or Y48pCMF Cc flowed at 2.5 to 10 uM, 50 uL/min; 298 K; 10 mM sodium phosphate buffer pH 6.5; reference spots with rabbit serum albumin subtracted; 1:1 binding model. In general terms: SPR reads the build-up and loss of mass on a sensor chip optically.

Experiment [2] has the same target. As to the kind of experiment: dynamic force spectroscopy (AFM); Cc1 anchored on Au(111); Cc (E104C) anchored directly to Au-coated AFM tips by thiol-Au; retraction velocities 0.5 to 4 um/s; 50 mM phosphate buffer pH 6.5; Bell-Evans model.
Target sequence in this assay (Q9FKS5 64-265): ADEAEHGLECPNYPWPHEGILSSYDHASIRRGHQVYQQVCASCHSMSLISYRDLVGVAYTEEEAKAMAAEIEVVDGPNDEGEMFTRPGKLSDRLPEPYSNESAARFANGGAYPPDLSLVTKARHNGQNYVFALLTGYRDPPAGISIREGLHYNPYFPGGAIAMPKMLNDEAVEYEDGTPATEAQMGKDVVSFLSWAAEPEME
The target is the same in experiment [3]. As to the kind of experiment: single-molecule force spectroscopy (AFM); Cc1 anchored on Au(111); Cc (E104C) anchored to the silicon AFM tip through a PEG27 linker; retraction at 1 um/s; 50 mM phosphate buffer pH 6.5; room temperature.
Target sequence in this assay (Q9FKS5 64-265): as above
The target is the same in experiment [4].
Target sequence in this assay (Q9FKS5 64-265): as above

Sequence of Y48pCMF cytochrome c E104C (P99999 1-48, stated change not applied): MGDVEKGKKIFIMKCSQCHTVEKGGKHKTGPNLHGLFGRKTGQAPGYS

One may read the Kd as the constant that tells how readily two partners part at equilibrium. For orientation: koff means the rate constant with which the complex falls apart. Low values mean a long-lived complex, high ones a short-lived complex. For orientation: kon means a measure of how fast the partners come together. Low values mean slow association, high ones fast association. In the case of “Y48pCMF cytochrome c (from UniProt P99999 1-105) (natural protein)”, in experiment [1], the Kd amounted to 357 nM, the koff was determined as 0.00358 s⁻¹ and the kon is 10000 M⁻¹ s⁻¹.
Substance “Y48pCMF cytochrome c E104C (from UniProt P99999 1-105) (natural protein)” registered a rate of force-activated unbinding k^ou (Bell-Evans model) in experiment [2] of 48 s⁻¹. For the same substance, in experiment [3], the unbinding force Fr, centre of the Gaussian fit was found to be 77 pN and the unbinding force Fr, mean amounted to 91 pN. The conductance of current blinks (EC-STM static break junction, bias 0.8 V, 50 mM phosphate buffer pH 6.5), Gaussian fit of the main peak in experiment [4] came out at 7.4e-06 G0.
